These results are taken from patent US20250163182A1 (Janssen / Centocor, published 2025).

Substitutions are numbered along the chain they refer to. Names may count otherwise.

In one test the target is T1, human ENPP3 (human, UniProt O14638 46-875, limits assumed).
T1 construct: neither the construct nor the method is stated; also called ectonucleotide pyrophosphatase/phosphodiesterase family member 3
T1 sequence (looked up): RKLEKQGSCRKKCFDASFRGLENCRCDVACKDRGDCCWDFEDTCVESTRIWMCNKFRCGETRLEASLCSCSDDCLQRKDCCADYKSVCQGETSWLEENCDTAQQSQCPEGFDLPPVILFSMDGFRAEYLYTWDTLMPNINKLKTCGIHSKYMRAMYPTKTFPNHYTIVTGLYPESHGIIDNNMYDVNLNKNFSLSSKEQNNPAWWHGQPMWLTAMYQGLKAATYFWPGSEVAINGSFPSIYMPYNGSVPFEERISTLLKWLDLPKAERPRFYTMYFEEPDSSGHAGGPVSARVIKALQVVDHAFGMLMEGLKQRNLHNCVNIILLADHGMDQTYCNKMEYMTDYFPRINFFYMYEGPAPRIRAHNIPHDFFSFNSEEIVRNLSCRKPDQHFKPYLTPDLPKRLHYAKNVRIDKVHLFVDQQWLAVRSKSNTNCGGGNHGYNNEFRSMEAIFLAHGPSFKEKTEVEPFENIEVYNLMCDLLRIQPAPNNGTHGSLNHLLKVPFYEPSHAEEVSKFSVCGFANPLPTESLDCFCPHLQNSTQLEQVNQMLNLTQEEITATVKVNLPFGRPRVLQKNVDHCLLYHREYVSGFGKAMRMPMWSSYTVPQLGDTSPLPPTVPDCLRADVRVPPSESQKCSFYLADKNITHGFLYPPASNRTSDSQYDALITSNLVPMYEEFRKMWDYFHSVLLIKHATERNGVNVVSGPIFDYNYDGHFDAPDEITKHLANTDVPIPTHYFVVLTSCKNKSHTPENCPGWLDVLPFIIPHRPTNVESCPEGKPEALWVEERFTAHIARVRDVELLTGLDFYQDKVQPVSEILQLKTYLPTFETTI
Put plainly: binding affinity to human ENPP3; method not stated.

A further test concerns the target T2, cynomolgus monkey ENPP3 (cynomolgus monkey, UniProt A0A2K5TKP4 46-874).
T2 construct: also called cyno ENPP3
T2 sequence: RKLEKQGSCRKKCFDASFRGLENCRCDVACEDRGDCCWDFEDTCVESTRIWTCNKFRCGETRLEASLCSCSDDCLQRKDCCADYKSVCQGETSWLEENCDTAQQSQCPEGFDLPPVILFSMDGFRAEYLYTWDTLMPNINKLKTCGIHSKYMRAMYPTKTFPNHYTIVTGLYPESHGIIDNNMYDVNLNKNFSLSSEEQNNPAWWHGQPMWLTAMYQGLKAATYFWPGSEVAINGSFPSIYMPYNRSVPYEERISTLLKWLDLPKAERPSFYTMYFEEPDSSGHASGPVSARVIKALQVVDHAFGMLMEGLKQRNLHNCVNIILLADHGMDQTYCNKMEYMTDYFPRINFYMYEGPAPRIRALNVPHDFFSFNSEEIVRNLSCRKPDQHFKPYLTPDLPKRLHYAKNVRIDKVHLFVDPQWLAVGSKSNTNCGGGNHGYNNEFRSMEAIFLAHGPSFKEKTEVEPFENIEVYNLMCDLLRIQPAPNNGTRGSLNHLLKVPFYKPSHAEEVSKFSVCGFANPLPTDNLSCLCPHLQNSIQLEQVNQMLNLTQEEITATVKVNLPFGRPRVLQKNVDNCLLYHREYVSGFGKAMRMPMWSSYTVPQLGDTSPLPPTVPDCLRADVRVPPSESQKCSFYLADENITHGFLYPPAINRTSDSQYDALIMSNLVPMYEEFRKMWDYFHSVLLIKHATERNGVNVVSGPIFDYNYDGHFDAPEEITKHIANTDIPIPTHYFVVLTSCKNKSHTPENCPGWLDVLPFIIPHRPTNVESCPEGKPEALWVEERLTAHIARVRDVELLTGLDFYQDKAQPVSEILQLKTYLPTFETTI
Briefly: binding affinity to cyno ENPP3; method not stated; biphasic.

In the next test the target is T3, ENPP1 on CHOK1 cells (UniProt P22413 1-925, limits assumed).
T3 construct: whole, on cells; also called ectonucleotide pyrophosphatase/phosphodiesterase family member 1; CHO ENPP1 OE
T3 sequence (looked up): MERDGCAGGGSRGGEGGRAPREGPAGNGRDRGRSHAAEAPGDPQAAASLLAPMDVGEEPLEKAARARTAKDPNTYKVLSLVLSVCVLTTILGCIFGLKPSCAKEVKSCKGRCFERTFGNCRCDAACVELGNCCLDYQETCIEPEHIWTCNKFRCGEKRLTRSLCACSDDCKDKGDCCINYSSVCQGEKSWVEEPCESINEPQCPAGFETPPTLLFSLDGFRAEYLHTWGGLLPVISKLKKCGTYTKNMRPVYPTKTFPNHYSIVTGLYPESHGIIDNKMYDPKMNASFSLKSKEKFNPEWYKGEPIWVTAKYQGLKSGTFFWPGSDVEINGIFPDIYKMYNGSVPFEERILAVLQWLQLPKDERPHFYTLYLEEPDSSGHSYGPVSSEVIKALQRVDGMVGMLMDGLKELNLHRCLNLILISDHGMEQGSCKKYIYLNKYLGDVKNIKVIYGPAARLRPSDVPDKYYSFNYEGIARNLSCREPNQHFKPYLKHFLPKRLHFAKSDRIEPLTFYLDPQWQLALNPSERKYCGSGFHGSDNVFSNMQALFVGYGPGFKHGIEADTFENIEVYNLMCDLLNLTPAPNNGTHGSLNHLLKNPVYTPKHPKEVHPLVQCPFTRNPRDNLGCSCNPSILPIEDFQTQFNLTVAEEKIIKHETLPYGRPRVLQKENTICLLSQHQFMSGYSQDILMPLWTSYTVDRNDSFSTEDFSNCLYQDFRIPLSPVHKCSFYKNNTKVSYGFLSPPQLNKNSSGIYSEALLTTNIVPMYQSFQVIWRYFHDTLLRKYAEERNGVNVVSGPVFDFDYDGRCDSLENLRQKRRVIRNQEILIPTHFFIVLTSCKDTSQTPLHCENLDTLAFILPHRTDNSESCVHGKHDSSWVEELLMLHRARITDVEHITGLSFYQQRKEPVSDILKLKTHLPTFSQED
Put plainly: flow cytometry on CHO cells overexpressing ENPP1. (A flow cytometer gives signals particle by particle.)

The target of a further test is T4, human ENPP3 on cells (human, UniProt O14638 1-875).
T4 construct: whole, on cells; also called ENPP3 on A704, VMRCRCW, HepG2, TUHR4TKB, TUHR10TKB; CHO-K1 ENPP3 OE
T4 sequence (looked up): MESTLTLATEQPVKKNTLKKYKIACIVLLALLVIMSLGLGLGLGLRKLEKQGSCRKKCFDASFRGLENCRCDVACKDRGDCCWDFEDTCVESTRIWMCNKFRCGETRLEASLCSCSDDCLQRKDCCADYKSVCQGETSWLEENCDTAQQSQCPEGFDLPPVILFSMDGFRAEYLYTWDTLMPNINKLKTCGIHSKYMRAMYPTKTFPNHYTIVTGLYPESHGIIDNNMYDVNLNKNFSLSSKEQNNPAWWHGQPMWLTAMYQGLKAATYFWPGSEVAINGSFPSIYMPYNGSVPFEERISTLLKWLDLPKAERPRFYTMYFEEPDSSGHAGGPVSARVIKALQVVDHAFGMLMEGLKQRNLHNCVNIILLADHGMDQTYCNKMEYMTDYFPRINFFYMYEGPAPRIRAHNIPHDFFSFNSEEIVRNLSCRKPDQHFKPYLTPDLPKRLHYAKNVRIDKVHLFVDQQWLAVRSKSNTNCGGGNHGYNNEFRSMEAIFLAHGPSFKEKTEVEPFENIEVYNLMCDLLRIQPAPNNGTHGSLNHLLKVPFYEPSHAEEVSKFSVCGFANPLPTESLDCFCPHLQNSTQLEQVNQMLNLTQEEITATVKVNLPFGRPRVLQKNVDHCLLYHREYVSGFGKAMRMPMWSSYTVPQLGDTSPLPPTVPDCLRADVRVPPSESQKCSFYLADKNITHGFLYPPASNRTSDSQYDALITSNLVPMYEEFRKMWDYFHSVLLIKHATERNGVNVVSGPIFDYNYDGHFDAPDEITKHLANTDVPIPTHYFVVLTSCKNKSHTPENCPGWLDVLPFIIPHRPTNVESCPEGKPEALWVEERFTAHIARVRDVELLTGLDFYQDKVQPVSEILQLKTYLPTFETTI
Put plainly: flow cytometry on CHO cells overexpressing ENPP3. How it is done:
To evaluate the specificity of binders to ENPP3 compared to other ENPP family members, cell binding was assessed on CHOK1 cells overexpressing ENPP1, ENPP2, or ENPP3 (FIG. 9).

A further test has as its target ENPP2 on CHOK1 cells (UniProt Q13822 36-863). Briefly: flow cytometry on CHO cells overexpressing ENPP2.

B1: NPP3B60 (antibody, V domains shown)
VH: QVQLVQSGAEVKKPGESLKISCKGSGYGFTNYWIGWVRQMPGKGLEWMGIIYPSDSNTRYSPSFQGQVTISADKSINTAYLQWSSLKASDTAMYYCTRQNYYYYTMDVWGQGTTVTVSS
VL: DIQMTQSPSFLSASVGDRVTITCRASQVIRSYLAWYQQKPGKAPKLLIYGASTLQSGFPSRFSGSGSGTEFTLTISSLQPEDFATYYCQQLNSYPRTFGQGTKVEIK
notes: mAb from Ablexis Kappa mice
As for B1, the values for the dissociation constant (Kd) in the test with human ENPP3 and with cynomolgus monkey ENPP3 were 0.448 nM and approximately 1 nM, respectively.

B2: NPP3B107 (antibody, V domains shown)
VH: EVQLVESGGGLVKPGGSLRLSCAASGFIFSDYSMNWVRQAPGKGLEWVSSISSGSSYIYYADSLKGRFTISRDNAKNSLYLQMSSLRAEDTAVYYCVRGLDYFDYWGQGALVTVSS
VL: B1 VL with V28D, R30S, S31N, K42R, G50V, F58V
notes: mAb from Ablexis Kappa mice
Take B2: the Kd (commonly the equilibrium constant for the complex coming apart) in the test with human ENPP3 is 0.133 nM; with cynomolgus monkey ENPP3, approximately 20 nM.

B3: NPP3B64 (antibody, V domains shown)
VH: QVQLVQSGAEVKKPGASVKVSCKASGYTFTTYYIHWVRQAPGQGLEWMGIINPSGGSTNYAQKFQGRVTMTRDTSTRIVYMELGSLRSEDTAVYYCARDYYYYYYGMDVWGQGTTVTVSS
VL: DIVMTQSPLSLPVTLGQPASISCRSSQSLVRNGGYTYLNWLQQRPGQPPRLLIYQISNRFSGVPDRFSGSGAGTDFTLTISRVEAEDVGVYYCMQATQFPHTFGQGTKLEIK
notes: mAb from Ablexis Kappa mice
Consider B3, for which the figures for the Kd with human ENPP3 and with cynomolgus monkey ENPP3 were 0.536 nM and approximately 2 nM, respectively.

B4: NPP3B86 (antibody, V domains shown)
VH: QVQLVQSGAEVKKPGASVKVSCKASGYTVTNYYIFWVRQAPGQGLEWMGWINPNSGGTNYAQKFQGRVTMTRDTSINTAYMKLSRLGSDDTAVYYCARGGYSGYALSSHYGMDVWGQGTMVTVSS
VL: EIVLTQSPGTLSLSPGERATLSCRASQSVSSSYLAWYQQKPGQAPRLLIYDASSRATGIPDRFSGSGSGTDFTLIISRLEPEDFAVYYCQQYDSSPLTFGGGTKVEIK
notes: mAb from Ablexis Kappa mice
In the case of B4, the dissociation constant (Kd) was 0.245 nM with human ENPP3 and approximately 5 nM with cynomolgus monkey ENPP3.

B5: NPP3B98 (antibody, V domains shown)
VH: QVQLQESGPGLVKPSETLSLTCTVSGGSISNYYWSWIRQPAGKGLEWIGRIYASGSTNYNPSLKSRVTMSVDTSKNQFSLRLRSVTATDTAVYYCAREGYSSTLYDNAFDFWGQGTMVTVSS
VL: DIQMTQSPSSVSASVGGRVTITCRASQGISTWLAWYQQKPGKAPKLLIYAASSLQSGVPSRFSGSGSGTDFTLTISSLQPEDFATYYCQQANSFPLTFGGGTKVEIK
notes: mAb from Ablexis Kappa mice
B5: the Kd in the test with human ENPP3 is 0.129 nM; in the test with cynomolgus monkey ENPP3 it was approximately 1 nM.

B6: NPP3B194 (bispecific antibody, IgG1)
VH: EVQLVESGGGRVKPGGSLRLSCAASGFTFSDYSMNWVRQAPGKGLEWVSSISSISSYVKYADSVKGRFTMSRDNAKNSLFLQMNSLRDEDMAVYYCARGHYFDYWGQGTLVTVSS
VL: EIVMTQSPATLSVSPGERATLSCRASQSVSSNLAWYQQKPGLAPRLLIYGASTRATGIPARFSGSGSGTEFTLTISSLQSEDFAVYYCQQYNNWPRTFGQGTKVEIK
scFv: EIVLTQSPATLSASPGERVTLSCSASSSVSYMNWYQQKPGQAPRRWIYDSSKLASGVPARFSGSGSGRDYTLTISSLEPEDFAVYYCQQWSRNPPTFGGGTKVEIKGGSEGKSSGSGSESKSTGGSQVQLVQSGAEVKKPGSSVKVSCKASGYTFTRSTMHWVKQAPGQGLEWIGYINPSSAYTNYNQKFQGRVTLTADKSTSTAYMELSSLRSEDTAVYYCASPQVHYDYAGFPYWGQGTLVTVSS
notes: ENPP3 Fab as VH1-CH1-hinge-CH2-CH3 IgG1 with hole T366S, L368A, Y407V and VL1-CL; scFv in VL-linker-VH-Fc orientation; also called unstapled (scFv) ENPP3×CD3; ScFv version of NPP3B815
In the case of B6, the binding result in the test with ENPP1 on CHOK1 cells and with ENPP2 on CHOK1 cells was “no binding (tested: Log(ug/mL) about 1.1 (about 12 ug/mL))” in each case. For the same molecule, the half-maximal effective concentration (EC50 (read off the curve)) (usually the concentration needed to bring the measured effect to its halfway point) with human ENPP3 on cells is approximately 0.5 µg/mL.

B7: NPP3B56 (antibody, V domains shown)
VH: B6 VH
VL: B6 VL
notes: mAb from Ablexis Kappa mice
Turning to B7, the Kd with human ENPP3 was 0.215 nM; with cynomolgus monkey ENPP3, approximately 2 nM.

B8: NPP3B100 (antibody, V domains shown)
VH: QVQLQESGPGLVKTSETLSLTCTVSGGSISSHYWSWIRQPPGKGLEWIGNIFYSGSTNYNPSLKSRVTMSVDTSKNHFSLKLISVTTADTAIYYCARHDHVWFDPWGQGTLVTVSS
VL: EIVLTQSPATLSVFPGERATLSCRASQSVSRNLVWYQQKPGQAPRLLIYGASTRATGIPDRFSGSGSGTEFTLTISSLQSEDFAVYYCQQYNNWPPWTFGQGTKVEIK
notes: mAb from Ablexis Kappa mice
In the test with human ENPP3, B8 gave a dissociation constant Kd of 0.0977 nM.
